Laboratory results as given in patent US10864252B2, “Anti-SSX-2 T cell receptors and related materials and methods of use” (The United States of America, as represented by the …, priority 2010, dated 2020).

Legend:
mel1300 cells = test: IFN-γ release, SSX-2 TCR PBL co-cultured with mel1300 cells with DAC; type: cell-based; conditions: 0.1 μM or 1.0 μWI DAC; PBLs from three donors; FIG. 12
Protocol: SSX-2 TCR-transduced PBLs from three donors were co-cultured with mel1300 cells without DAC or with 0.1 μM or 1.0 μWI DAC.

[1] = IFN-γ release, transduced PBL without target cells (medium / T cell alone); type: cell-based, human; conditions: T cell alone
Excerpt: (§1) SSX-2 TCR-transduced PBLs were co-cultured with various tumor cell lines. […] FIGS. 4A and 4B, FIG. 11, and Tables 3 and 4 show additional results of PBLs from human donors that were transduced with the SSX-2 TCR of Example 2 when these PBLs were co-cultured with various tumor cells. PBLs that were untransduced (UT) or transduced with a vector comprising SEQ ID NO: 27 (SSX-2 TCR), SEQ ID NO: 29 (codon-optimized SSX-2 TCR), or SEQ ID NO: 30 (codon-optimized SSX-2 TCR including mouse constant region) were co-cultured with various tumor cell lines. Tables 5 and 6 show the resulting interferon-γ levels (pg/ml) measured with respect to PBL from two different donors.

[2] = test system: SSX-2+/HLA-A2+ target cells; test: Percent lysis of target cells; type: cell-based; conditions: FIGS. 7A-D and 8A-D, various E:T ratios
T331A mel = test: IFN-γ release, co-culture with T331A; type: cell-based; conditions: co-cultured with T331A mel
Excerpt: as §1

Lau 149 mel = test: IFN-γ release, co-culture with Lau 149 mel; type: cell-based; conditions: co-cultured with Lau 149 mel
Excerpt: (§2) PBLs that were untransduced (UT) or transduced with a vector comprising SEQ ID NO: 27 (SSX-2 TCR), SEQ ID NO: 29 (codon-optimized SSX-2 TCR), or SEQ ID NO: 30 (codon-optimized SSX-2 TCR including mouse constant region) were co-cultured with various tumor cell lines. Tables 5 and 6 show the resulting interferon-γ levels (pg/ml) measured with respect to PBL from two different donors.

COS-A2 SSX2 = test: IFN-γ release, co-culture with COS-A2 SSX2; type: cell-based; conditions: co-cultured with COS-A2-SSX2
Excerpt: as §1

938 mel = test: IFN-γ release, co-culture with 938; type: cell-based; conditions: co-cultured with 938 mel
Excerpt: as §1

K562 = test: IFN-γ release, co-culture with K562; type: cell-based; conditions: co-cultured with K562
Excerpt: as §2

COS-A2-SSX-2 cells = test: Proliferation ([3H]-thymidine) on co-culture with COS-A2-SSX-2 cells; type: cell-based; conditions: PBL from Donor 1 or Donor 2; FIGS. 6A, 6B
Protocol: PBLs from Donor 1 or Donor 2 that were untransduced (UT) or transduced with a vector comprising SEQ ID NO: 27 (SSX-2 TCR), SEQ ID NO: 29 (codon-optimized SSX-2 TCR), or SEQ ID NO: 30 (codon-optimized SSX-2 TCR including mouse constant region) were co-cultured with COS-A2-SSX-2 cells. Proliferation in terms of [^3H]-thymidine incorporation (CPM) was measured and is shown in FIG. 6A (Donor 1) and 6B (Donor 2).

[3] = test system: SSX2+/HLA-A2+ target cells; test: Proliferation ([3H]-thymidine) on co-culture with tumor cells; type: cell-based; conditions: 1300 mel, 624 mel, 888 mel, SK mel 37 or COS-A2-SSX-2 cells; FIGS. 9A-9E
Excerpt: In another experiment, PBLs transduced as described in this example were co-cultured with 1300 mel cells, 624 mel cells, 888 mel cells, SK mel 37 cells, or COS-A2-SSX-2 cells.

K562-A2-Erythroleukemia = test: IFN-γ release, co-culture with K562-A2 erythroleukemia; type: cell-based; conditions: co-cultured with K562-A2-Erythroleukemia
Excerpt: as §2

293-A2 = test: IFN-γ release, co-culture with 293-A2; type: cell-based; conditions: co-cultured with 293-A2
Excerpt: as §1

1300 mel = test: IFN-γ release, co-culture with 1300 mel; type: cell-based; conditions: co-cultured with 1300 mel
Excerpt: as §2

624 mel = test: IFN-γ release, co-culture with 624 melanoma; type: cell-based; conditions: co-cultured with 624 mel
Excerpt: as §1

938-A2 mel = test: IFN-γ release, co-culture with 938-A2 melanoma; type: cell-based; conditions: co-cultured with 938-A2 mel
Excerpt: as §1

COS-A2 = test: IFN-γ release, TCR-transduced PBL co-cultured with COS-A2; type: cell-based; conditions: co-cultured with Cos-A2
Excerpt: as §1

COS-A2-SSX2 cells = test: CD137 (4-1BB) upregulation after co-culture with COS-A2-SSX2 cells; type: cell-based; conditions: FACS after co-culture with COS-A2-SSX2 cells
293-A2 SSX2 = test: IFN-γ release, co-culture with 293-A2 SSX2; type: cell-based; conditions: co-cultured with 293-A2-SSX2
Excerpt: as §1

SK MEL37 = test: IFN-γ release, co-culture with SK MEL37 melanoma; type: cell-based
Excerpt: as §1

U251 Glioma = test: IFN-γ release, co-culture with U251 glioma; type: cell-based; conditions: co-cultured with U251 Glioma
Excerpt: as §1

SKOV3 Ovarian = test: IFN-γ release, co-culture with SKOV3 ovarian; type: cell-based; conditions: co-cultured with SKOV3 Ovarian
Excerpt: as §1

[4] = Table 5 donor, co-cultured with Skmel 37 mel
[5] = Table 6 donor, co-cultured with Skmel 37

With `Nc1ncn([C@H]2C[C@H](O)[C@@H](CO)O2)c(=O)n1` [DAC, 5-aza-2′-deoxycytidine] the “effect on recognition of mel1300 cells (IFN-γ)” value (mel1300 cells) was “enhances the recognition of mel1300 cells by SSX2-TCR engineered PBL”.

B1: SSX2-TCR-Co Op: codon-optimized anti-SSX-2 TCR alpha and beta chains encoded by SEQ ID NO: 29, tested as transduced human PBLs (protein)
chain: MALSSLLKVVTASLWLGPGIAQKITQTQPGMFVQEKEAVTLDCTYDTSDPSYGLFWYKQPSSGEMIFLIYQGSYDQQNATEGRYSLNFQKARKSANLVISASQLGDSAMYFCAMTSGFGNEKLTFGTGTRLTIIPNIQNPDPAVYQLRDSKSSDKSVCLFTDFDSQTNVSQSKDSDVYITDKTVLDMRSMDFKSNSAVAWSNKSDFACANAFNNSIIPEDTFFPSPESSCDVKLVEKSFETDTNLNFQNLSVIGFRILLLKVAGFNLLMTLRLWSSRAKRSGSGATNFSLLKQAGDVEENPGPMGPGLLHWMALCLLGTGHGDAMVIQNPRYQVTQFGKPVTLSCSQTLNHNVMYWYQQKSSQAPKLLFHYYDKDFNNEADTPDNFQSRRPNTSFCFLDIRSPGLGDAAMYLCATSRGQGGQPQHFGDGTRLSILEDLNKVFPPEVAVFEPSEAEISHTQKATLVCLATGFFPDHVELSWWVNGKEVHSGVSTDPQPLKEQPALNDSRYCLSSRLRVSATFWQNPRNHFRCQVQFYGLSENDEWTQDRAKPVTQIVSAEAWGRADCGFTSVSYQQGVLSATILYEILLGKATLYAVLVSALVLMAMVKRKDF
With B1 the interferon-γ levels ([1]; Table 5 donor) was 164 pg/mL, the interferon-γ levels ([1]; Table 6 donor) was 290 pg/mL and the “lytic activity (percent lysis)” value [2] was “specific lytic activity against SSX-2^+/HLA-A2^+ target cells”. The interferon-γ levels (T331A mel; Table 5 donor) was 30 pg/mL, the interferon-γ levels (T331A mel; Table 6 donor) was 30 pg/mL and the interferon-γ levels (Lau 149 mel; Table 5 donor) was 193 pg/mL. For the same molecule, the interferon-γ levels (Lau 149 mel; Table 6 donor) was 120 pg/mL, the interferon-γ levels (COS-A2 SSX2; Table 5 donor) was 64142 pg/mL and the interferon-γ levels (COS-A2 SSX2; Table 6 donor) was 138324 pg/mL. For the same molecule, the interferon-γ levels (938 mel; Table 5 donor) was 890 pg/mL, the interferon-γ levels (938 mel; Table 6 donor) was 768 pg/mL and the interferon-γ levels (K562; Table 5 donor) was 1714 pg/mL. For the same molecule, the interferon-γ levels (K562; Table 6 donor) was 2784 pg/mL, the “proliferation ([3H]-thymidine incorporation)” value (shortened to “proliferation”) (COS-A2-SSX-2 cells) was “proliferate in response to co-culture with COS-A2-SSX-2 cells” and the “proliferation” value [3] was “proliferate in response to co-culture with SSX2+/HLA-A2+ target cells”. The interferon-γ levels (K562-A2-Erythroleukemia; Table 5 donor) was 21325 pg/mL, the interferon-γ levels (K562-A2-Erythroleukemia; Table 6 donor) was 13610 pg/mL and the interferon-γ levels (293-A2; Table 5 donor) was 711 pg/mL. The interferon-γ levels (293-A2; Table 6 donor) was 1067 pg/mL, the interferon-γ levels (1300 mel; Table 5 donor) was 2596 pg/mL and the interferon-γ levels (1300 mel; Table 6 donor) was 3052 pg/mL. For the same molecule, the interferon-γ levels (624 mel; Table 5 donor) was 37547 pg/mL, the interferon-γ levels (624 mel; Table 6 donor) was 47059 pg/mL and the interferon-γ levels (938-A2 mel; Table 5 donor) was 46304 pg/mL. The interferon-γ levels (938-A2 mel; Table 6 donor) was 51173 pg/mL, the interferon-γ levels (COS-A2; Table 5 donor) was 2338 pg/mL and the interferon-γ levels (COS-A2; Table 6 donor) was 601 pg/mL. For the same molecule, the “activation marker CD137 (4-1BB)” value (COS-A2-SSX2 cells) was “upregulated”, the interferon-γ levels (293-A2 SSX2; Table 5 donor) was 37522 pg/mL and the interferon-γ levels (293-A2 SSX2; Table 6 donor) was 49112 pg/mL. For the same molecule, the interferon-γ levels (SK MEL37; [4]) was 8869 pg/mL, the interferon-γ levels (SK MEL37; [5]) was 11445 pg/mL and the interferon-γ levels (U251 Glioma; Table 5 donor) was 19223 pg/mL. The interferon-γ levels (U251 Glioma; Table 6 donor) was 21418 pg/mL, the interferon-γ levels (SKOV3 Ovarian; Table 5 donor) was 2527 pg/mL and the interferon-γ levels (SKOV3 Ovarian; Table 6 donor) was 22509 pg/mL.

B2: SSX2-TCR-MCR: codon-optimized human/mouse chimeric anti-SSX-2 TCR with mouse constant region, encoded by SEQ ID NO: 30, tested as transduced human PBLs (protein)
chain: MALSSLLKVVTASLWLGPGIAQKITQTQPGMFVQEKEAVTLDCTYDTSDPSYGLFWYKQPSSGEMIFLIYQGSYDQQNATEGRYSLNFQKARKSANLVISASQLGDSAMYFCAMTSGFGNEKLTFGTGTRLTIIPNDIQNPEPAVYQLKDPRSQDSTLCLFTDFDSQINVPKTMESGTFITDKTVLDMKAMDSKSNGAIAWSNQTSFTCQDIFKETNATYPSSDVPCDATLTEKSFETDMNLNFQNLSVMGLRILLLKVAGFNLLMTLRLWSSRAKRSGSGATNFSLLKQAGDVEENPGPMGPGLLHWMALCLLGTGHGDAMVIQNPRYQVTQFGKPVTLSCSQTLNHNVMYWYQQKSSQAPKLLFHYYDKDFNNEADTPDNFQSRRPNTSFCFLDIRSPGLGDAAMYLCATSRGQGGQPQHFGDGTRLSILEDLRNVTPPKVSLFEPSKAEIANKQKATLVCLARGFFPDHVELSWWVNGKEVHSGVSTDPQAYKESNYSYCLSSRLRVSATFWHNPRNHFRCQVQFHGLSEEDKWPEGSPKPVTQNISAEAWGRACGITSSYQQGVLSATILYEILLGKATLYAVLVSTLVVMAMVKRKNS
For B2, the interferon-γ levels ([1]; Table 5 donor) was 327 pg/mL, the interferon-γ levels ([1]; Table 6 donor) was 554 pg/mL and the “lytic activity (percent lysis)” value [2] was “specific lytic activity against SSX-2^+/HLA-A2^+ target cells”. For the same molecule, the interferon-γ levels (T331A mel; Table 5 donor) was 30 pg/mL, the interferon-γ levels (T331A mel; Table 6 donor) was 38 pg/mL and the interferon-γ levels (Lau 149 mel; Table 5 donor) was 270 pg/mL. The interferon-γ levels (Lau 149 mel; Table 6 donor) was 142 pg/mL, the interferon-γ levels (COS-A2 SSX2; Table 5 donor) was 56893 pg/mL and the interferon-γ levels (COS-A2 SSX2; Table 6 donor) was 164314 pg/mL. For the same molecule, the interferon-γ levels (938 mel; Table 5 donor) was 1122 pg/mL, the interferon-γ levels (938 mel; Table 6 donor) was 932 pg/mL and the interferon-γ levels (K562; Table 5 donor) was 2752 pg/mL. The interferon-γ levels (K562; Table 6 donor) was 3328 pg/mL, the “proliferation” value (COS-A2-SSX-2 cells) was “proliferate in response to co-culture with COS-A2-SSX-2 cells” and the “proliferation” value [3] was “proliferate in response to co-culture with SSX2+/HLA-A2+ target cells”. It also gave an interferon-γ levels (K562-A2-Erythroleukemia; Table 5 donor) of 17437 pg/mL, an interferon-γ levels (K562-A2-Erythroleukemia; Table 6 donor) of 13555 pg/mL and an interferon-γ levels (293-A2; Table 5 donor) of 802 pg/mL. It also gave an interferon-γ levels (293-A2; Table 6 donor) of 1005 pg/mL, an interferon-γ levels (1300 mel; Table 5 donor) of 2715 pg/mL and an interferon-γ levels (1300 mel; Table 6 donor) of 3460 pg/mL. The interferon-γ levels (624 mel; Table 5 donor) was 46999 pg/mL, the interferon-γ levels (624 mel; Table 6 donor) was 57693 pg/mL and the interferon-γ levels (938-A2 mel; Table 5 donor) was 51092 pg/mL. For the same molecule, the interferon-γ levels (938-A2 mel; Table 6 donor) was 40047 pg/mL, the interferon-γ levels (COS-A2; Table 5 donor) was 2827 pg/mL and the interferon-γ levels (COS-A2; Table 6 donor) was 553 pg/mL. The “activation marker CD137 (4-1BB)” value (COS-A2-SSX2 cells) was “upregulated”, the interferon-γ levels (293-A2 SSX2; Table 5 donor) was 37258 pg/mL and the interferon-γ levels (293-A2 SSX2; Table 6 donor) was 47273 pg/mL. The interferon-γ levels (SK MEL37; [4]) was 10401 pg/mL, the interferon-γ levels (SK MEL37; [5]) was 10630 pg/mL and the interferon-γ levels (U251 Glioma; Table 5 donor) was 19027 pg/mL. For the same molecule, the interferon-γ levels (U251 Glioma; Table 6 donor) was 20027 pg/mL, the interferon-γ levels (SKOV3 Ovarian; Table 5 donor) was 2221 pg/mL and the interferon-γ levels (SKOV3 Ovarian; Table 6 donor) was 9857 pg/mL.
